The values below come from the Immune Epitope Database (IEDB).

A value given as a limit tells only on which side of the number the result lay.

In assay [1] the target is HLA-A*03:01. Description: IEDB peptide-MHC binding, cellular MHC/competitive/fluorescence; ≥ and ≤ were set here for values at or beyond the usual limits of such assays. The following applies: source organism: Hepatitis B virus.
The target in assay [2] is HLA-A*11:01. The assay is described as above. The following applies: source organism: Hepatitis B virus.
The target of assay [3] is HLA-A*31:01. The assay is described as above. Particulars: source organism: Hepatitis B virus.
Assay [4] concerns the target HLA-A*68:01. Described as above. Particulars: source organism: Hepatitis B virus.
The target of assay [5] is HLA-A*68:02. The description is as above.
Assay [6] has as its target HLA-A*02:02. Description: IEDB peptide-MHC binding, purified MHC/competitive/radioactivity; ≥ and ≤ were set here for values at or beyond the usual limits of such assays. Particulars: source organism: Hepatitis B virus.
Assay [7] concerns the target HLA-A*02:03. The description is as above. The following applies: source organism: Hepatitis B virus.
The target in assay [8] is HLA-A*02:06. Described as above. The following applies: source organism: Hepatitis B virus.
Assay [9] concerns the target HLA-A*02:01. The description is as above. Particulars: source organism: Hepatitis B virus.
Assay [10] deals with HLA-A*68:02. The description is as above. The following applies: source organism: Hepatitis B virus.
In assay [11] the target is HLA-A*02:01. Description: IEDB peptide-MHC binding, cellular MHC/competitive/fluorescence; ≥ and ≤ were set here for values at or beyond the usual limits of such assays.
Assay [12] concerns the target HLA-A*02:02. Described as above.
Assay [13] has as its target HLA-A*02:03. Described as above.
Assay [14] has as its target HLA-A*02:06. The description is as above.
Where [15] appears, read: source organism: Hepatitis B virus.
Setting [16] is: source organism: Vaccinia virus WR.
Where [17] appears, read: source organism: Influenza A virus.
[18] abbreviates: source organism: Mammarenavirus whitewaterense.
Setting [19] is: source organism: Mammarenavirus machupoense.
The mark [20] stands for this setting: source organism: Mammarenavirus guanaritoense.

For orientation: IC50 means the concentration needed to halve the response being measured. As for ALMPLYACI, the IC50 in assay [1] was not below 70 µM; in assay [2] it was not below 70 µM; in [3] it was 50.3 µM; in [4], not below 70 µM.

As for FLCKQYLNL, the IC50 in assay [1] was not below 70 µM; in [2], not below 70 µM; in [3], 26.3 µM; in [4], not below 70 µM; in [5] (setting [15]), not below 70 µM; in [6], 175 nM. Also, the IC50 is 11 nM in [7] and 1110 nM in [8].

As to FLGPLLVLQA, the IC50 was 33.1 µM in [1]; 61.2 µM in assay [2]; 14.7 µM in assay [3]; not below 70 µM in [4]; 30.3 µM in assay [5] (setting [15]); 3690 nM in assay [6]. Also, the concentration for half-maximal inhibition (IC50) was found to be 160 nM in [7] and 1370 nM in [8].

For FLLAQFTSA, the half-maximal inhibitory concentration (IC50) in assay [3] was 25.7 µM; in assay [4] it was not below 70 µM; in assay [5] (setting [15]), 9.89 µM; in assay [9], 98 nM; in [8], 8.7 nM.

In the case of FLLAQFTSAI, the IC50 in assay [1] is 11.2 µM; in assay [2], not below 70 µM; in assay [3], 16.1 µM; in assay [4], 23.6 µM; in [6], 3.6 nM; in assay [7], 0.31 nM. Also, the IC50 in assay [8] was found to be 45 nM.

Regarding FLLTRILTI, the IC50 in assay [1] was not below 70 µM; in [3], not below 70 µM; in assay [4], not below 70 µM; in [5] (setting [15]) it was 22.3 µM.

Take FLPSDFFPSV: the IC50 is not below 70 µM in [1], 20.1 µM in [3], not below 70 µM in assay [4] and 28 nM in assay [10].

In the case of GLLGWSPQA, the IC50 is 14 µM in assay [1]; not below 70 µM in [2]; 9.14 µM in assay [3]; not below 70 µM in assay [4]; not below 70 µM in [5] (setting [15]); 51 nM in assay [6]. The IC50 in assay [8] is 1050 nM.

For GMLPVCPLI, the IC50 in assay [1], in [2] and in [4] was not below 70 µM each time.

ILSPFLPLL: the 50% inhibitory concentration (IC50) was not below 70 µM in assay [4]; 1.4 nM in assay [9]; 0.076 nM in assay [6]; 0.84 nM in [7]; 0.93 nM in assay [8].

Take NLSWLSLDV: the IC50 is 9.22 µM in [1]; not below 70 µM in assay [2]; 15.4 µM in assay [3]; not below 70 µM in assay [4]; 28.4 µM in assay [5] (setting [15]); 69 nM in [6]. The concentration for half-maximal inhibition (IC50) in assay [7] was determined as 50 nM; in assay [8] it was 2740 nM.

With SILSPFLPL, in [4], the IC50 is not below 70 µM.

For VASDVCKKNL, the half-maximal inhibitory concentration (IC50) in [11] (setting [16]) was not below 70 µM; in assay [12] (setting [16]), 50.9 µM; in [13] (setting [16]), not below 70 µM; in [14] (setting [16]), not below 70 µM; in assay [5] (setting [16]), 39.5 µM.

Take VATTHSWI: the IC50 in assay [11] (setting [17]) is not below 70 µM; in assay [12] (setting [17]) it was not below 70 µM; in [13] (setting [17]) it was 62.3 µM; in assay [14] (setting [17]), not below 70 µM; in assay [5] (setting [17]) it was 56.2 µM.

For the sequence VIPFDDIVRT, the IC50 in [11] (setting [16]) is 24.4 µM; in assay [12] (setting [16]), 62.8 µM; in assay [13] (setting [16]), 50.3 µM; in [14] (setting [16]), 18.2 µM; in assay [5] (setting [16]), 42.2 µM.

Take VIRHVDGKIL: the IC50 in assay [11] (setting [16]) was not below 70 µM; in assay [12] (setting [16]) it was not below 70 µM; in assay [13] (setting [16]), 33.4 µM; in [14] (setting [16]), not below 70 µM; in assay [5] (setting [16]), not below 70 µM.

VIVENDNVI: the IC50 came out at 25.6 µM in assay [11] (setting [16]); 15.5 µM in assay [12] (setting [16]); 19.5 µM in [13] (setting [16]); 7.24 µM in [14] (setting [16]); 8.02 µM in [5] (setting [16]).

On to VLKAMHDKKI, for which the IC50 in assay [11] (setting [16]) was not below 70 µM; in assay [12] (setting [16]), 48.9 µM; in [13] (setting [16]), 33.9 µM; in assay [14] (setting [16]) it was not below 70 µM; in [5] (setting [16]) it was not below 70 µM.

Take VMDKNHAIFT: the IC50 is 8.7 µM in [11] (setting [16]); 18.7 µM in assay [12] (setting [16]); 11.5 µM in assay [13] (setting [16]); not below 70 µM in assay [14] (setting [16]); 13 µM in assay [5] (setting [16]).

Consider VTGSYNLVDT, for which the IC50 in assay [11] (setting [16]), in assay [12] (setting [16]), in assay [13] (setting [16]), in [14] (setting [16]) and in assay [5] (setting [16]) was not below 70 µM each time.

Turning to VTKSSSWKDV, the IC50 in assay [11] (setting [16]) is not below 70 µM; in [12] (setting [16]), not below 70 µM; in assay [13] (setting [16]) it was 41.9 µM; in assay [14] (setting [16]), not below 70 µM; in [5] (setting [16]), 40.4 µM.

Regarding VVKDKIKLPT, the IC50 is 40.2 µM in [11] (setting [16]); 37.3 µM in assay [12] (setting [16]); 8.6 µM in [13] (setting [16]); 29.1 µM in assay [14] (setting [16]); 42.7 µM in assay [5] (setting [16]).

In the case of WLSLLVPFV, the concentration for half-maximal inhibition (IC50) in assay [1] is 40.3 µM; in assay [3], 11.7 µM; in assay [4] it was not below 70 µM.

As to YCHGILLKDV, the IC50 in assay [11] (setting [18]) is 11.4 µM; in assay [12] (setting [18]) it was not below 70 µM; in assay [13] (setting [18]), 13 µM; in assay [14] (setting [18]), 15 µM; in assay [5] (setting [18]) it was 57.6 µM.

Consider YIKDLKHAT, for which the IC50 in [11] (setting [16]) is 8.08 µM; in [12] (setting [16]), 18.5 µM; in assay [13] (setting [16]) it was not below 70 µM; in [14] (setting [16]), 39.4 µM; in assay [5] (setting [16]) it was not below 70 µM.

On to YLEKANKI, for which the IC50 was 12.3 µM in assay [11] (setting [17]); 8.22 µM in assay [12] (setting [17]); 38.3 µM in [13] (setting [17]); not below 70 µM in assay [14] (setting [17]); not below 70 µM in [5] (setting [17]).

Take YMDDVVLGA: the IC50 in assay [1] was 69.4 µM; in assay [2], not below 70 µM; in assay [3], not below 70 µM; in assay [4], not below 70 µM; in assay [5] (setting [15]) it was 50.1 µM; in assay [7], 1290 nM. Moreover, in assay [8], the IC50 was determined as 3700 nM.

Take YNCKCCWFA: the IC50 is 42.9 µM in assay [11] (setting [19]); 16.1 µM in assay [12] (setting [19]); 31.9 µM in assay [13] (setting [19]); not below 70 µM in assay [14] (setting [19]); 52.9 µM in assay [5] (setting [19]).

YNFSLSAAV: the IC50 in assay [11] (setting [19]) is 7.51 µM; in assay [12] (setting [19]), 46.3 µM; in assay [13] (setting [19]), not below 70 µM; in [14] (setting [19]), not below 70 µM; in [5] (setting [19]), 29.7 µM.

For YTLIYRQLT, the IC50 in assay [11] (setting [16]) turned out to be 28.5 µM; in assay [12] (setting [16]), 6.41 µM; in assay [13] (setting [16]), 9.42 µM; in assay [14] (setting [16]), 17.6 µM; in assay [5] (setting [16]) it was 7.86 µM.

With YVEHDPRLVA, the IC50 in assay [11] (setting [16]) came out at 57.5 µM; in assay [12] (setting [16]), 18.6 µM; in [13] (setting [16]), 16.2 µM; in assay [14] (setting [16]) it was 11.9 µM; in assay [5] (setting [16]) it was 31.1 µM.

Take YVIGLLPQS: the half-maximal inhibitory concentration (IC50) in assay [11] (setting [20]) is not below 70 µM; in assay [12] (setting [20]), not below 70 µM; in assay [13] (setting [20]), not below 70 µM; in [14] (setting [20]), 48.1 µM; in assay [5] (setting [20]), not below 70 µM.

As to YVKNGTKGKL, the IC50 in assay [11] (setting [16]) was determined as 40.6 µM; in [12] (setting [16]) it was 5.72 µM; in assay [13] (setting [16]) it was 7.17 µM; in assay [14] (setting [16]), 28.5 µM; in assay [5] (setting [16]) it was 32.6 µM.

For YVPSAEDNYL, the IC50 in [11] (setting [16]), in assay [12] (setting [16]), in [13] (setting [16]), in assay [14] (setting [16]) and in assay [5] (setting [16]) was not below 70 µM throughout.
